The chains are these.
B1: H34 wild type (H34wt) catalytic antibody light chain T93A (protein)
chain: DIQMTQSPSTLSASVGDRVTITCRASQSISSWLAWYQQKPGKAPKVLIYKASTLESGVPLRFSGSGSGTEFTLTISSLQPDDFATYYCQQYSAYRTFGQGTKVEIK
B2: H34 wild type (H34wt) catalytic antibody light chain T97A (protein)
chain: B1 chain with A93T, T96A
B3: H34 wild type (H34wt) catalytic antibody light chain R96P (protein)
chain: B1 chain with A93T, R95P
B4: H34 wild type (H34wt) catalytic antibody light chain D1A (protein)
chain: B1 chain with D1A, A93T
B5: H34 wild type (H34wt) catalytic antibody light chain R96A (protein)
chain: B1 chain with A93T, R95A

Numbering of substitutions follows the chain as printed. Names may count otherwise.

recombinant PD-1 molecule (rPD-1), Q15116, sequence (Q15116 25-167): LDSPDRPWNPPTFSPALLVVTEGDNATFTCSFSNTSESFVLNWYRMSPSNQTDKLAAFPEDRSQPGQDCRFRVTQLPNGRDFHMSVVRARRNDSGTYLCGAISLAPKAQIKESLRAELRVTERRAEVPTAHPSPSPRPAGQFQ

One assay has as its target recombinant PD-1 molecule (rPD-1), Q15116. Description: ELISA. The settings on record: chain shown with the change; L-chain 4 µM; coated antigen (rPD1): 2 µg/mL and 50 µL/well; parent: est. 0.94; read off a plot.
On to B1, for which the response is 0.69 OD (490nm).

Regarding B2, the response was 1.15 OD (490nm).

For B3, the response is 0.09 OD (490nm).

B4: the response is 1.12 OD (490nm).

With B5, the response is 0.07 OD (490nm).

Still in this assay, the particulars now being: chain shown with the change; L-chain 20 µM (prozone region for this mutant); coated antigen (rPD1): 2 µg/mL and 50 µL/well; parent: est. 1.14; read off a plot.
With B2, the response is 0.61 OD (490nm).

Take B4: the response was 0.63 OD (490nm).

The same assay, now with this note: chain shown with the change; L-chain 20 µM; coated antigen (rPD1): 2 µg/mL and 50 µL/well; parent: est. 1.14; read off a plot.
Regarding B1, the response is 1.1 OD (490nm).

In the case of B3, the response was 0.13 OD (490nm).

In the case of B5, the response was 0.16 OD (490nm).

The record behind these values is article PMC9649737.
